Test results as given in the nanobody polyreactivity screen of Harvey et al. (2022).

Experiment: yeast display, Sf9 membrane polyspecificity reagent, FACS + sequencing; frameworks hold sequencing errors
Method in brief: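 In a synthetic yeast display library (Saccharomyces cerevisiae BJ5465), nanobody expression was induced with galactose for 36–48 hours. FACS gates were set low and high (top ~1%) using anti-HA fluorescence for expression and streptavidin fluorescence for binding of the Sf9 membrane reagent. Each polyreactivity label is drawn from the gate of origin.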

QVQLVESGGGLVQAGGSLRLSCAASGRTFFLYALGWYRQATGKERELFARISTSGGGTYYADSVKGRFTISRDHAKNTVYLQMISLKPEDTAVYYCAARTDRGQRRAGGYDFWGQGTQVTVSS
polyreactivity (PSR sort gate): high polyreactivity

QVQLQERGGGLVQAGGSLRQRCAASRNISASSDLGWYHQAPGKEREFVASITSGGTTYYADSVKGRFTISRDNAKNTVYLQMNSLKPEDTAVYYCAVGDPADAEFGYWGKGTQVTVSS
polyreactivity (PSR sort gate): low polyreactivity

QVQHVESGGGLVQAGGSLRLSCAASGFIFDCNTMGWYRQAPGKERELVATIDFSGTSTYYADSVKGRFTISRDNAKNTVYFQMNSLKPEDTAVYYCNAVRSGWGYFFCLNYWGQGTQVTVSS
polyreactivity (PSR sort gate): low polyreactivity

QVQLVESGGGLVHAGGSLRLSCADSGFTFGAYAMGWYRQAPGKERELVATITNSGRTYYADSVKGRFTISRDNAKNTVYLQMNSLNPEDTAVYYCAAQPDGQAMEHWGQGTQVTVSS
polyreactivity (PSR sort gate): low polyreactivity

QVQLVESGGGLVQAGGSLRLSCAASGNTFDYYAMGWYRQAPGKERELVAAIDSGTTTYYADSVKGRFTISRDNAKNTVYLQMNSLKPEDTAVYYCAAEYAYVPGWYEYWGQGTQVTVSS
polyreactivity (PSR sort gate): high polyreactivity

QVQLVESGGGLVQAGGSLRLSCAASGSIFGPYAMGWYRQAPGKERELVATITSGGRTYYADSVKGRFTISRDNAKNTVYLQLNSLKPEDTAVYYCAAAGKGRYHFRSTMDYWGQGTQVTVSS
polyreactivity (PSR sort gate): high polyreactivity

QVQLVESGGGLVQAGGSLRLSCAASGSIFVNYAMGWSRQAPGKERELVAAISRDGGRTYYADSVKGRFTISRDNAKNTVYLQMNSLKPEDTAVYYCNAVIPSTAYYRYGYWGQGTQVTVSS
polyreactivity (PSR sort gate): high polyreactivity

QVQLVETGGGLVQSGGSLRLSCAASGSTFTYYAMGWYRQAPGKERELVAAIDFSGTSTYYADSVKGRFTISRDNAKNTVYLQMNCLKPEDTAVYFCAASQSLYWGGAHDNGEFGYWGQGTQVTVSS
polyreactivity (PSR sort gate): low polyreactivity

QVQLQESGGGPVQAGGSMRLSCAASGSISELRPMGWYREAPGKERELVAGISTGGSTNYADSVKGRFTISRDNAKKTVFLQMNSLKPEDTAVYYCAAASYGEGSYDYWGQGTQVTVRS
polyreactivity (PSR sort gate): high polyreactivity

QVQLVESGGGLVQAGGSLRLSCAASGSILRQYAMGWYRQAPGKERELVATITGDGSTNYADSVKGRFTISRDNAKNTVYLQMNSLKPEDTAVYYCNAELPVHWSWYDYWGQGTQVTVSS
polyreactivity (PSR sort gate): low polyreactivity

QEQLQESGGGLVQAGGSLRLSCAASGSIYDDTYMARYRQAPGKERELVATIDSGSTTNYADSVKGRITISRDNAKNTVYLQMNSLKPEDSAVYYCAAADSHIDYFDYWGQGTQVTVSS
polyreactivity (PSR sort gate): low polyreactivity

QVQLVESGGGLDQAGGSLRLICAASGGTSQRYVMGWYRQAPGKERELVAAITKSGVRTYYADSVKGRFTISRDNAKNKVYLQMNSLKPEDTAVYYCAAKTPTKDRGSDFDYWGQGTQVTVSS
polyreactivity (PSR sort gate): high polyreactivity

QVQLVESGGGLVQAGGSLRLSCAASGSIFYWYAMGWYRQAPGKERELVAAISSGGSTNYADSVKGRFTISRDNAKNTVYLQMNSLKPEDTSVYYCNADIRSFYCEYYTGLDSWGQGTQVTVSS
polyreactivity (PSR sort gate): low polyreactivity

QVQLVESGGGLVQAGRSLRLICAASGSIFDWYAMGWYRQAPGKEGELVAAISSGDSTYYADSVKGRFTISRDNAKNTVYLQMNSLKPEDTAVYYCAAVTKLSGIRYHYWGQGTQVTVSS
polyreactivity (PSR sort gate): low polyreactivity

QVQLVESGGGLVQAGGSLRLSCAASGSTFGGNAMGWYRQAPGKERELVAAISSSGGSTYYADSVKGRFTISRDNAKYTVYLQMNSLKPEDSAVYYCAALYHWTYDYWGLGTQVTVSS
polyreactivity (PSR sort gate): low polyreactivity

QVQLVESGGGLVQAGGSLRLSCAASGSTFGFYAMGWYRQAPGKERELVAAISGRGGSTYYADSVKGRFTISRDNAKNTVYLQMNSLKPEDTAVYYCNADWQDDLAGYVVDYWGLGTQVTVSS
polyreactivity (PSR sort gate): low polyreactivity

QVQLVESGGGLVQAGGRLRLTCAASGSTLPLNAMGWYRQAPGKEREFVASITYSGGNTYYADSVKGRFTISRDNAKNTVYLQMNSLKPEDTAVYYCAVDEYGIWVGWVPYATFGMNYWGQGTQVTVSS
polyreactivity (PSR sort gate): high polyreactivity

QVQLVESGGGLVQAGGSLRLSCAASGRIFAHNAMGWYRQAPGKERELVAAINWSGGSTYYADSVTWRFTISRDNAKNTVYLQMNSLKPEDTAVYYCNNRYIHRSRAGYDYWGQGTQVTVSS
polyreactivity (PSR sort gate): low polyreactivity

QVQLVESGGGLVQAGGSLRLSCAASGLIFRYYAMGWYRQAPGKERELVAAISYSGGRTYYADSVKGRFTISRDNAKNTVYLQMNSLKPEDTAVYYCAAVDRRGYRYALDYWGQGTQVTVSS
polyreactivity (PSR sort gate): high polyreactivity

QVQLVESRSGIVQAGRSLRLSCAASGSIFGSYVMGWYRQAPGKERELVAAITVRTGTTYYADSVKGRFTISLDNAKNTVYLQMKRLKPEDTAVYYCDSRYGPKYGYWGQGNQVTVSS
polyreactivity (PSR sort gate): high polyreactivity

QVQLVDSGGGLVQAGGSLRLSCAASGFTIPTYAMGWYRQAPGKERELVAAISGDGDSTYYADSVKGRFTISRDNAKNTVYLQMNSLKPEDTAVYYCAAEPNVYFSVFVLFPSDYWGQGTQVTVSS
polyreactivity (PSR sort gate): low polyreactivity

QVQLVESGGRLVQAGGRLRLSCAASGSIFMKNAMGWYRPAHGKERELVADITRSGDRTYYADSVKGRFTISRDNAKNTVYLQMNSLKPEDTAVYYCAKYYVWPRYGYSGQGTQVTVSS
polyreactivity (PSR sort gate): high polyreactivity

QVQLVESGGGLVQAGGSLRLSCAASGFMFSRYGMGWYRQAPGKERELVAAISGSCGSTYYADSVKGRFTISRDNAKNTVYLQMKSLKPEDTAFYLCATAYSWSNSDWFAYSYDYWGHGTQVTVSS
polyreactivity (PSR sort gate): low polyreactivity

QVQLVESGGGLFQAGGSLRLSCAASGFTFFIYAMGGSRQAPGKEREFVAAITGSGGSTYYADSVKGRFTISRDNAKNTVYLQLNSLKPEDTAVYYCNKLSYGRSGYWGQGTQVTVSS
polyreactivity (PSR sort gate): high polyreactivity

QVQLVESGGGLVQAGGSLRLSCAASGRTFKYYAMGWYRQAPGKERELVAAITSTGGSTYYADSVKGRFTISRDNAKNTVYLQMHSLKPEDTAVYYCNRYTQYRDRSDNHWGQGTQVTVSS
polyreactivity (PSR sort gate): high polyreactivity

QVHLVESGGGLVQAGGSLRLSCAASGFTFPHYAMGWYRQAPGKERELVAAISFSGGRTYYADSVKGRFTISRDHSKNTVYVQMNSLKPEDTAVYYCNVPYYSFRELSYYYWGQGTQVTVSS
polyreactivity (PSR sort gate): high polyreactivity

QVQLVESGGGLVQAGGILRLSCAASGSIIYVNAMGWYRQAPGKERELVAAISVRGGRTYYADSVKGRFTISRDNAKNSVYLQMISLKPEDTAVYDCAAGWYYYARPRVYNAREYYYWGQGTQVNVSS
polyreactivity (PSR sort gate): high polyreactivity

QVQLVESGGGLVQAGGSLRLSCAASGSIFDGNALGWYRQAPGKERELVAAISYRGGSTYYADSVKGRFTISRDNAKNTVYLQMNSLKPEDTAVYYCAAGSISTPGRGVDKPDPYDYWGQGTQVTVSS
polyreactivity (PSR sort gate): low polyreactivity

QVQLVESGGGLVQAGGSLRVSCAASGNIFGEYAMGWYRQAPGKERELVAAITNSGGRTHYADSVKGRFTISRDNAKNTVYLQMNSLKPEDTAVYYCAAPTKYRSRRYYWGQGTQVTVSS
polyreactivity (PSR sort gate): high polyreactivity

QVQLVESGGGLVQAGGSLRLSCAASGFTFWRNTMGSYRQARGKEREFVAAIDWSGGSTTYADSVKGRFTISRDNAKNTVYLQMNSLKKEDTAVYYCAAAERRRHYWWGQESDYWGQGTQVTVSS
polyreactivity (PSR sort gate): low polyreactivity

QVQLVDSGGGLVQAGGTLRLSCAATGRTVSKYAMGWYRQAPGKERELVAAITRSGGRTYYADSVKGRFTISRDNAKNTVYLQMNSLKPEDTAVYYCARTTNQHTLATEDDYWGQGTQVTVSS
polyreactivity (PSR sort gate): high polyreactivity
